The supplement of paper PMC10567573

B1: RHOBTB3 (parent)
chain: STTEGIQLAKELGATYLELHSLDD
B2: FBF1 (parent)
chain: LQRASILDMRRDHEEQLQRLKLLK

Variants of: B1
Assay: protein stability index of a GFP-peptide fusion (GPS, HEK-293T) (PSI 1-6); higher = more stable
Details: c terminus: a fixed tail appended
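Also: lentivirally expressed fusions sorted by FACS into six bins by GFP to DsRed ratio, PSI derived from sequencing read proportions per bin multiplied by bin number.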

Protein stability index: each site, then its substitutions
I6: E 4.71 | V 4.05 | K 3.94 | R 3.6 | Y 3.22 | P 4.31 | M 3.01 | H 4.62 | G 4.9 | C 5.12 | T 1.68 | F 2.59 | S 4.39 | W 2.7 | L 2.87 | N 4.39 | Q 4.54
Q7: W 2.5 | S 4.24 | T 3.68 | L 2.95 | C 3.49 | E 3.71 | G 3.36 | A 3.7 | R 2.19 | F 3.37 | P 3.65 | V 3.54 | Y 3.52 | H 3.99 | N 3.24 | I 3.37 | K 3.96 | D 4.68 | M 2.86
K10: G 1.71 | F 1.38 | T 1.84 | P 4.33 | N 2.84 | A 2.73 | W 1.5 | Q 3.57 | S 3.13 | R 2.99 | V 2.06 | E 4.35 | H 3.15
A9: D 4.64 | W 2.64 | Q 3.52 | P 4.49 | H 4.38 | L 1.19 | G 4.34 | T 4.21 | M 1.74 | F 2.28 | Y 3.12 | I 2.63 | S 4.24 | V 2.53 | R 3.01 | N 4.06 | C 3.08 | K 3.6
L8: T 4.97 | Y 4.97 | C 3.94 | G 5.04 | A 4.29 | I 4.41 | S 4.58 | D 5.04 | E 4.97 | P 4.92 | K 4.78 | Q 5.2 | R 4.41 | N 4.57 | M 4.11 | W 3.86 | H 4.53 | F 4.24 | V 4.44
G13: N 2.64 | A 1.75 | Y 1.42 | S 3.35 | P 4.81 | E 2.73 | R 1.66 | F 2.36 | C 2.88 | K 3.16 | M 1.66 | D 4.31 | L 1.28 | W 1.39 | V 2.52 | T 2.72 | I 2.79 | H 2.09
G5: H 3.26 | D 2.49 | V 3.98 | Q 3.94 | P 4.09 | I 1.92 | A 3.23 | L 3.64 | K 3.73 | E 3.31 | Y 2.91 | W 1.56 | F 2.25 | R 3.89 | N 4.27 | M 2.15 | C 3.02 | T 4.16 | S 3.56
T15: K 4.33 | P 3.37 | C 3.59 | M 3.27 | G 3.97 | Q 4.33 | S 3.71 | V 2.17 | W 2.02 | L 2.1 | I 1.99 | R 3.83 | N 4.72 | D 4.41 | E 4.87 | Y 3.49 | H 2.69 | F 2.59
L19: D 5.77 | E 4.76 | F 4.21 | G 5.31 | C 4.71 | A 4.63
T2: P 4.02 | H 3.68 | V 2.81 | L 2.21 | M 2.8 | N 4.11 | Q 3.85 | D 4.43 | C 3.31 | W 1.58 | I 2.07 | A 3.58 | Y 2.37 | G 2.54 | R 3.5 | K 3.5 | E 4.33 | S 3.71
E18: F 2 | L 2.41 | C 2.62 | H 3.07 | G 3.72 | S 3.86 | M 2.66 | Q 3.39 | A 3.22 | Y 2.57 | K 3.2 | R 2.96 | W 1.61 | N 4.02 | D 4.36 | P 3.97 | V 2.38 | I 1.86 | T 3.71
S1: N 3.19 | W 2.74 | C 2.86 | H 2.81 | F 2.39 | E 4.26 | K 4.39 | R 3.64 | T 3.56 | I 2.44 | D 4.37 | P 3.63 | M 3.49 | Q 4.18 | V 3.06 | A 3.21 | G 3.69 | L 2.26
E11: C 3.42 | P 3.92 | V 2.87 | Y 2.88 | G 3.86 | D 4.01 | A 1.53 | L 2.19 | T 3.61 | H 4.34 | W 1.73 | N 3.84 | K 2.94 | M 3.19 | Q 3.89 | F 2.56 | I 2.39
T3: E 4.19 | Q 2.84 | F 2.29 | S 4.02 | R 3.03 | W 1.84 | L 2.37 | C 2.22 | N 2.9 | M 2.31 | D 3.97 | A 2.94 | G 4.01 | H 2.49 | V 3.19 | K 3.42 | Y 2.83 | P 3.56 | I 2.73
L17: Q 4.74 | T 4.82 | F 3.27 | A 5.04 | V 4.15 | S 4.61 | I 2.9 | C 4.14 | K 4.83 | R 3.94 | H 4.8 | Y 4.12 | N 4.6 | G 5.66 | P 4.88 | E 4.73 | D 5.55 | M 4.11
E4: Y 2.27 | G 3.98 | H 3.37 | M 2.27 | N 3.58 | R 3.42 | F 2.29 | P 3.65 | C 1.66 | L 1.83 | I 2.35 | Q 2.71 | V 3.1 | K 4.24 | S 3.79 | A 3.66 | D 3.44 | T 3.67 | W 2.58
A14: K 3.01 | H 4.1 | T 4.18 | S 4.02 | M 3.58 | P 4.28 | E 4.25 | D 2.87 | L 3.15 | N 3.59 | W 1.75 | I 3.31 | R 3.59 | V 3.85 | Y 3.7 | Q 3.28
L12: S 4.92 | Y 4.81 | A 5 | P 4.42 | N 4.77 | I 3.92 | Q 4.31 | T 4.88 | K 5.07 | C 3.96 | M 4.48 | E 4.99 | D 5.62 | G 4.89 | V 4.43 | F 3.89 | H 4.78
Y16: G 4.83 | V 3.59 | W 2.49 | K 4.81 | D 3.29 | T 4.28 | L 2.91 | H 4.25 | R 4.18 | P 5.66 | S 4.84 | N 5.25 | I 3.47 | Q 4.33 | E 4.35 | F 3.27

Variants of: B2
Assay: as above
Details: c terminus: a fixed tail appended

Protein stability index of substitutions, site by site:
Q2: K 2.93
I6: V 3.57
R11: C 3.36
E15: F 2.68
K21: F 2.85
M9: K 3.9
K24: G 3.2
H13: D 3.69
S5: G 3.71
L20: C 4.17
